Key:
[1] = molecular target: ChAdOx1 hexon protein (chimpanzee adenovirus Y25 (ChAdV-Y25)); assay: cryo-EM structure
[2] = molecular target: ChAdOx1 pIX (chimpanzee adenovirus Y25 (ChAdV-Y25)); assay: cryo-EM structure
[3] = molecular target: ChAdOx1 penton protein (chimpanzee adenovirus Y25 (ChAdV-Y25)); assay: cryo-EM structure
[4] = molecular target: ChAdOx1 fiber-knob protein (chimpanzee adenovirus Y25 (ChAdV-Y25)); assay: crystal structure

Substance: ChAdOx1 hexon protein (natural protein)
- stoichiometry N [1]: 3

Substance: ChAdOx1 pIX (natural protein)
- stoichiometry N [2]: 4

Substance: ChAdOx1 penton protein (natural protein)
- stoichiometry N [3]: 5

Substance: ChAdOx1 fiber-knob protein (domain or fragment)
- stoichiometry N [4]: 3

Reference: doi:10.1101/2021.05.19.444882
